Results from article PMC9482650, “Quantitative fragmentomics allow affinity mapping of interactomes” (Nature Communications, 2022).

molecular target: T1, RHPN1, Q8TCX5; experiment: holdup assay; parameters: key: below the threshold = too weak to quantify, mostly under pKd 3.1 to 4; details: plain residues with an end cap or a label only (N-terminal biotin on a linker: ado-ado)
T1 sequence (Q8TCX5 508-602, limits assumed, looked up): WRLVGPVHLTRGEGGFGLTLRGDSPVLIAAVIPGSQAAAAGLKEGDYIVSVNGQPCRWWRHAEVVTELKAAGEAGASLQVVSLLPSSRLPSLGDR

| Binder | pKd |
| --- | --- |
| NHSSSPETTA [TRMT13, Q9NUP7] | below the threshold |

molecular target: MAGI2_3, Q86UL8; experiment: holdup assay; parameters: key: below the threshold = too weak to quantify, mostly under pKd 3.1 to 4; details: plain residues with an end cap or a label only (N-terminal biotin on a linker: ado-ado)
Sequence (Q86UL8 600-682): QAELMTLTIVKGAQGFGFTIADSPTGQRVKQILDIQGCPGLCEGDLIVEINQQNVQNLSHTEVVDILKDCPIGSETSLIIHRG

| Binder | pKd |
| --- | --- |
| NHSSSPETTA [TRMT13, Q9NUP7] | below the threshold |

molecular target: PDZRN4_1, Q6ZMN7; experiment: holdup assay; parameters: key: below the threshold = too weak to quantify, mostly under pKd 3.1 to 4; details: plain residues with an end cap or a label only (N-terminal biotin on a linker: ado-ado)
Sequence (Q6ZMN7 213-318): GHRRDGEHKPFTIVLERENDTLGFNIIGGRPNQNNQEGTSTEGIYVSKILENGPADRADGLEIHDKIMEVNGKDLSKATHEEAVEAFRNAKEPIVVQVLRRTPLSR

| Binder | pKd |
| --- | --- |
| NHSSSPETTA [TRMT13, Q9NUP7] | below the threshold |

molecular target: T2, NHERF3_4, Q5T2W1; experiment: holdup assay; parameters: key: below the threshold = too weak to quantify, mostly under pKd 3.1 to 4; details: plain residues with an end cap or a label only (N-terminal biotin on a linker: ado-ado)
T2 sequence (Q5T2W1 373-468, limits assumed, looked up): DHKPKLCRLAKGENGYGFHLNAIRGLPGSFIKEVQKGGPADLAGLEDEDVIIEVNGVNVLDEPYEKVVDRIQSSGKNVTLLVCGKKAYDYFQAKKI

| Binder | pKd |
| --- | --- |
| NHSSSPETTA [TRMT13, Q9NUP7] | below the threshold |

molecular target: DLG2_2, Q15700; experiment: holdup assay; parameters: key: below the threshold = too weak to quantify, mostly under pKd 3.1 to 4; details: plain residues with an end cap or a label only (N-terminal biotin on a linker: ado-ado)

| Binder | pKd |
| --- | --- |
| NHSSSPETTA [TRMT13, Q9NUP7] | below the threshold |

molecular target: T3, GRIP1_7, Q9Y3R0; experiment: holdup assay; parameters: key: below the threshold = too weak to quantify, mostly under pKd 3.1 to 4; details: plain residues with an end cap or a label only (N-terminal biotin on a linker: ado-ado)
T3 sequence (Q9Y3R0 999-1096, limits assumed, looked up): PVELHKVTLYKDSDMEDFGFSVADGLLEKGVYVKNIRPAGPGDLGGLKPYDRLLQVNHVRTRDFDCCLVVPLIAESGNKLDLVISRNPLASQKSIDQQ

| Binder | pKd |
| --- | --- |
| NHSSSPETTA [TRMT13, Q9NUP7] | below the threshold |

molecular target: T4, MPDZ_5, O75970; experiment: holdup assay; parameters: key: below the threshold = too weak to quantify, mostly under pKd 3.1 to 4; details: plain residues with an end cap or a label only (N-terminal biotin on a linker: ado-ado)
T4 sequence (O75970 695-796, limits assumed, looked up): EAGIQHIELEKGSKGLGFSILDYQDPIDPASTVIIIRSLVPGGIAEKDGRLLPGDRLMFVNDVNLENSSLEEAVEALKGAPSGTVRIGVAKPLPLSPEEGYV

| Binder | pKd |
| --- | --- |
| NHSSSPETTA [TRMT13, Q9NUP7] | below the threshold |

molecular target: DLG5_1, Q8TDM6; experiment: holdup assay; parameters: key: below the threshold = too weak to quantify, mostly under pKd 3.1 to 4; details: plain residues with an end cap or a label only (N-terminal biotin on a linker: ado-ado)
Sequence (Q8TDM6 617-713): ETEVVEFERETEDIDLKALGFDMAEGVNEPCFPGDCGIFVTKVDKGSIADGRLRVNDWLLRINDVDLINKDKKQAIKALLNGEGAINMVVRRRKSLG

| Binder | pKd |
| --- | --- |
| NHSSSPETTA [TRMT13, Q9NUP7] | below the threshold |

molecular target: Inadl_5, Q8NI35; experiment: holdup assay; parameters: key: below the threshold = too weak to quantify, mostly under pKd 3.1 to 4; details: plain residues with an end cap or a label only (N-terminal biotin on a linker: ado-ado)
Sequence (Q8NI35 673-780): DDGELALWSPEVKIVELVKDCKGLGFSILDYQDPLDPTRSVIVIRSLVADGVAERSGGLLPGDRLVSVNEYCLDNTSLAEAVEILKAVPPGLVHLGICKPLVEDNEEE

| Binder | pKd |
| --- | --- |
| NHSSSPETTA [TRMT13, Q9NUP7] | below the threshold |

molecular target: LIMK2, P53671; experiment: holdup assay; parameters: key: below the threshold = too weak to quantify, mostly under pKd 3.1 to 4; details: plain residues with an end cap or a label only (N-terminal biotin on a linker: ado-ado)
Sequence (P53671 143-248): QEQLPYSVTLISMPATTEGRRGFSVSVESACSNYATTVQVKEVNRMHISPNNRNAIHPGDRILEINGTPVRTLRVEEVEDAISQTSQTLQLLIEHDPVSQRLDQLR

| Binder | pKd |
| --- | --- |
| NHSSSPETTA [TRMT13, Q9NUP7] | below the threshold |

molecular target: MAST1, Q9Y2H9; experiment: holdup assay; parameters: key: below the threshold = too weak to quantify, mostly under pKd 3.1 to 4; details: plain residues with an end cap or a label only (N-terminal biotin on a linker: ado-ado)
Sequence (Q9Y2H9 962-1065): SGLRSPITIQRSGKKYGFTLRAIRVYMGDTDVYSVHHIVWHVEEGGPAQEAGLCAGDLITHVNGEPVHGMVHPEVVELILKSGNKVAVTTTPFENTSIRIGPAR

| Binder | pKd |
| --- | --- |
| NHSSSPETTA [TRMT13, Q9NUP7] | 3.55 |

molecular target: MAGI2_4, Q86UL8; experiment: holdup assay; parameters: key: below the threshold = too weak to quantify, mostly under pKd 3.1 to 4; details: plain residues with an end cap or a label only (N-terminal biotin on a linker: ado-ado)
Sequence (Q86UL8 772-865): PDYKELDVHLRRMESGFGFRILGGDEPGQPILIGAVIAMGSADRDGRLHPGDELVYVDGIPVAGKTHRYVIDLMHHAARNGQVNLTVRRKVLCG

| Binder | pKd |
| --- | --- |
| NHSSSPETTA [TRMT13, Q9NUP7] | below the threshold |

molecular target: GRID2IP_2, A4D2P6; experiment: holdup assay; parameters: key: below the threshold = too weak to quantify, mostly under pKd 3.1 to 4; details: plain residues with an end cap or a label only (N-terminal biotin on a linker: ado-ado)
Sequence (A4D2P6 272-370): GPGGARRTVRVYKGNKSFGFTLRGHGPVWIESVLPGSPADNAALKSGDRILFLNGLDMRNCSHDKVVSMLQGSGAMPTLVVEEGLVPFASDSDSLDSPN

| Binder | pKd |
| --- | --- |
| NHSSSPETTA [TRMT13, Q9NUP7] | below the threshold |

molecular target: DLG1_2, Q12959; experiment: holdup assay; parameters: key: below the threshold = too weak to quantify, mostly under pKd 3.1 to 4; details: plain residues with an end cap or a label only (N-terminal biotin on a linker: ado-ado)
Sequence (Q12959 314-412): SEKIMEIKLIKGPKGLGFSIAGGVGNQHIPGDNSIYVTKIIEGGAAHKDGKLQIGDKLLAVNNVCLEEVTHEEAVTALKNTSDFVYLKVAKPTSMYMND

| Binder | pKd |
| --- | --- |
| NHSSSPETTA [TRMT13, Q9NUP7] | below the threshold |

molecular target: T5, MPP7, Q5T2T1; experiment: holdup assay; parameters: key: below the threshold = too weak to quantify, mostly under pKd 3.1 to 4; details: plain residues with an end cap or a label only (N-terminal biotin on a linker: ado-ado)
T5 sequence (Q5T2T1 134-230, limits assumed, looked up): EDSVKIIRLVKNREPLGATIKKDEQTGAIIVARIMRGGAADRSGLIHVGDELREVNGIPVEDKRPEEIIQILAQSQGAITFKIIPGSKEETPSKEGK

| Binder | pKd |
| --- | --- |
| NHSSSPETTA [TRMT13, Q9NUP7] | below the threshold |

molecular target: T6, TX1BP3, O14907; experiment: holdup assay; parameters: key: below the threshold = too weak to quantify, mostly under pKd 3.1 to 4; details: plain residues with an end cap or a label only (N-terminal biotin on a linker: ado-ado)
T6 sequence (O14907 10-122, limits assumed, looked up): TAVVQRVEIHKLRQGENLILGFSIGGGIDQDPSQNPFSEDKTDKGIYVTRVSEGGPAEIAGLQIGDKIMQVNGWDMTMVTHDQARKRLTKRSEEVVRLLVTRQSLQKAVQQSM

| Binder | pKd |
| --- | --- |
| NHSSSPETTA [TRMT13, Q9NUP7] | 3.87 |

molecular target: T7, PCLO, Q9Y6V0; experiment: holdup assay; parameters: key: below the threshold = too weak to quantify, mostly under pKd 3.1 to 4; details: plain residues with an end cap or a label only (N-terminal biotin on a linker: ado-ado)
T7 sequence (Q9Y6V0 4491-4600, limits assumed, looked up): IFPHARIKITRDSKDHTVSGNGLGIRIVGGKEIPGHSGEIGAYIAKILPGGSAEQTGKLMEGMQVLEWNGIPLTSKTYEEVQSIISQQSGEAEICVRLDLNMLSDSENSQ

| Binder | pKd |
| --- | --- |
| NHSSSPETTA [TRMT13, Q9NUP7] | below the threshold |

molecular target: HTRA1, Q92743; experiment: holdup assay; parameters: key: below the threshold = too weak to quantify, mostly under pKd 3.1 to 4; details: plain residues with an end cap or a label only (N-terminal biotin on a linker: ado-ado)
Sequence (Q92743 360-477): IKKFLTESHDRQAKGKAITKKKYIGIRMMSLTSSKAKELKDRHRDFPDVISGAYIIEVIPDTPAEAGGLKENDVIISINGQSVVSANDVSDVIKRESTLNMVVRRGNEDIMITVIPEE

| Binder | pKd |
| --- | --- |
| NHSSSPETTA [TRMT13, Q9NUP7] | below the threshold |

molecular target: T8, LRRC7, Q96NW7; experiment: holdup assay; parameters: key: below the threshold = too weak to quantify, mostly under pKd 3.1 to 4; details: plain residues with an end cap or a label only (N-terminal biotin on a linker: ado-ado)
T8 sequence (Q96NW7 1440-1537, limits assumed, looked up): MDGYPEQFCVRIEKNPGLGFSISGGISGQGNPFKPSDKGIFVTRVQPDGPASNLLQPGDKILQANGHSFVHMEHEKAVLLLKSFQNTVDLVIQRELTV

| Binder | pKd |
| --- | --- |
| NHSSSPETTA [TRMT13, Q9NUP7] | below the threshold |

molecular target: DLG2_3, Q15700; experiment: holdup assay; parameters: key: below the threshold = too weak to quantify, mostly under pKd 3.1 to 4; details: plain residues with an end cap or a label only (N-terminal biotin on a linker: ado-ado)

| Binder | pKd |
| --- | --- |
| NHSSSPETTA [TRMT13, Q9NUP7] | 3.67 |

molecular target: T9, GRIP1_3, Q9Y3R0; experiment: holdup assay; parameters: key: below the threshold = too weak to quantify, mostly under pKd 3.1 to 4; details: plain residues with an end cap or a label only (N-terminal biotin on a linker: ado-ado)
T9 sequence (Q9Y3R0 247-346, limits assumed, looked up): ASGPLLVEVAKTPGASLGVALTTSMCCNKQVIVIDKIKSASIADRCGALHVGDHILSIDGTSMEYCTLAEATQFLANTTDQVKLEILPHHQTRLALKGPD

| Binder | pKd |
| --- | --- |
| NHSSSPETTA [TRMT13, Q9NUP7] | below the threshold |

molecular target: T10, SYNJ2BP, P57105; experiment: holdup assay; parameters: key: below the threshold = too weak to quantify, mostly under pKd 3.1 to 4; details: plain residues with an end cap or a label only (N-terminal biotin on a linker: ado-ado)
T10 sequence (P57105 8-110, limits assumed, looked up): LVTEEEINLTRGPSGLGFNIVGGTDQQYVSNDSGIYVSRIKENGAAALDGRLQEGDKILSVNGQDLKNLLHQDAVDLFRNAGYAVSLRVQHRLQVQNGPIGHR

| Binder | pKd |
| --- | --- |
| NHSSSPETTA [TRMT13, Q9NUP7] | below the threshold |

molecular target: T11, NHERF3_3, Q5T2W1; experiment: holdup assay; parameters: key: below the threshold = too weak to quantify, mostly under pKd 3.1 to 4; details: plain residues with an end cap or a label only (N-terminal biotin on a linker: ado-ado)
T11 sequence (Q5T2W1 238-333, limits assumed, looked up): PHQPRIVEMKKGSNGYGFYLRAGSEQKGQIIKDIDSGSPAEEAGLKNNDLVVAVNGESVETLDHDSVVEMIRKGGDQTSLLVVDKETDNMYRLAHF

| Binder | pKd |
| --- | --- |
| NHSSSPETTA [TRMT13, Q9NUP7] | below the threshold |

molecular target: T12, SNTA1, Q13424; experiment: holdup assay; parameters: key: below the threshold = too weak to quantify, mostly under pKd 3.1 to 4; details: plain residues with an end cap or a label only (N-terminal biotin on a linker: ado-ado)
T12 sequence (Q13424 82-180, limits assumed, looked up): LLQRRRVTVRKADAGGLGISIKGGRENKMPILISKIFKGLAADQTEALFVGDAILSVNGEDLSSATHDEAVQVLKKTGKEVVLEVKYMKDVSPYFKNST

| Binder | pKd |
| --- | --- |
| NHSSSPETTA [TRMT13, Q9NUP7] | below the threshold |

molecular target: GRIP2_7, Q9C0E4; experiment: holdup assay; parameters: key: below the threshold = too weak to quantify, mostly under pKd 3.1 to 4; details: plain residues with an end cap or a label only (N-terminal biotin on a linker: ado-ado)
Sequence (Q9C0E4 934-1023): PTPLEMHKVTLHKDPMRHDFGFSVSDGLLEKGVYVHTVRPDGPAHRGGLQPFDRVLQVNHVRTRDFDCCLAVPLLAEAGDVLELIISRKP

| Binder | pKd |
| --- | --- |
| NHSSSPETTA [TRMT13, Q9NUP7] | below the threshold |
